Positions of bridges follow the written chain, without caps; N, C: chain ends. No end group written: not given here. COCH2 = acetyl group that carries the bridge
molecular target: T1, Recombinant Human FGFR1 alpha (IIIc) Fc Chimera Protein (Homo sapiens, UniProt P11362); test: ELISA binding affinity of enzymatically synthesized peptide to FGFR; conditions: ELISA luminescence signal at 10 nmol/L peptide, SEQ ID NO: 239 standardized to 1; enzyme synthesis product
T1 construct: purchased R&D systems 658-FR-050
How it was run: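 Cell-free PUREfrex-translated cyclic peptides (Myc/HiBiT-tagged, quantified by HiBiT luminescence) bound 3 h at room temperature to immobilized FGFR1α(IIIc)-Fc, detected with anti-Myc and chemiluminescence. FGFR-specific signal at 10 nmol/L normalized to a reference cyclic peptide and graded A–D.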

T1 sequence (P11362 with tags, fused parts or gaps limits assumed): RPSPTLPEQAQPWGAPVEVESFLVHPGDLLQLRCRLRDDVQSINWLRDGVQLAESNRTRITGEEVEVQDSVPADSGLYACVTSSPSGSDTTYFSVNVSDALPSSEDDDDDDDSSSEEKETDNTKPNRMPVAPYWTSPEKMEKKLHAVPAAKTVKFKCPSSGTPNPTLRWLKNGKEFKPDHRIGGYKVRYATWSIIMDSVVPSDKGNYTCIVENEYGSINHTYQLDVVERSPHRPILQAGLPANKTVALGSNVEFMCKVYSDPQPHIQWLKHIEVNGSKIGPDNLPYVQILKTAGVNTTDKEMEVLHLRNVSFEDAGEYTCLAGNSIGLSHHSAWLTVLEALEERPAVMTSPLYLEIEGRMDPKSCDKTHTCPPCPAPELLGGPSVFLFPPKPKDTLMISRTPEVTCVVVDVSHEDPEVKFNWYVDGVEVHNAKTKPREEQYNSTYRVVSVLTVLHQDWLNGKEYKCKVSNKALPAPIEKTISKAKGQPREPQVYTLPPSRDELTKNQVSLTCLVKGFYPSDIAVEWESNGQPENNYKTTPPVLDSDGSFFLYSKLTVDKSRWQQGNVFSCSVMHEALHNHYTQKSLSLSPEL

Substance | Evaluation result of binding affinity to FGFR
193 (ICVYTFDAHAHSLHLALTK(COCH2)I; thioether 2-19 (inferred)) [compound 193] | C (0.1 or more and less than 0.5)
194 (ICVYTFDAHAHSLHIALTK(COCH2)I; thioether 2-19 (inferred)) [compound 194] | C (0.1 or more and less than 0.5)
195 (ICVYTFDAHAHSLHVALTK(COCH2)I; thioether 2-19 (inferred)) [compound 195] | C (0.1 or more and less than 0.5)
196 (ICVYTFDAHAHSLHFALTK(COCH2)I; thioether 2-19 (inferred)) [compound 196] | C (0.1 or more and less than 0.5)
197 (ICVYTFDAHAHSLHYALTK(COCH2)I; thioether 2-19 (inferred)) [compound 197] | C (0.1 or more and less than 0.5)
198 (ICVYTFDAHAHSLHWALTK(COCH2)I; thioether 2-19 (inferred)) [compound 198] | C (0.1 or more and less than 0.5)
199 (ICVYTFDAHAHSLHNALTK(COCH2)I; thioether 2-19 (inferred)) [compound 199] | A (0.7 or more)
200 (ICVYTFDAHAHSLHQALTK(COCH2)I; thioether 2-19 (inferred)) [compound 200] | A (0.7 or more)
201 (ICVYTFDAHAHSLHSALTK(COCH2)I; thioether 2-19 (inferred)) [compound 201] | A (0.7 or more)
202 (ICVYTFDAHAHSLHTALTK(COCH2)I; thioether 2-19 (inferred)) [compound 202] | A (0.7 or more)
203 (ICVYTFDAHAHSLHDALTK(COCH2)I; thioether 2-19 (inferred)) [compound 203] | A (0.7 or more)
204 (ICVYTFDAHAHSLHEALTK(COCH2)I; thioether 2-19 (inferred)) [compound 204] | A (0.7 or more)
205 (ICVYTFDAHAHSLHRALTK(COCH2)I; thioether 2-19 (inferred)) [compound 205] | A (0.7 or more)
206 (ICVYTFDAHAHSLHHALTK(COCH2)I; thioether 2-19 (inferred)) [compound 206] | A (0.7 or more)
207 (ICVYTFDAHAHSLHAILTK(COCH2)I; thioether 2-19 (inferred)) [compound 207] | C (0.1 or more and less than 0.5)
208 (ICVYTFDAHAHSLHAVLTK(COCH2)I; thioether 2-19 (inferred)) [compound 208] | C (0.1 or more and less than 0.5)
209 (ICVYTFDAHAHSLHASLTK(COCH2)I; thioether 2-19 (inferred)) [compound 209] | C (0.1 or more and less than 0.5)
210 (ICVYTFDAHAHSLHAAITK(COCH2)I; thioether 2-19 (inferred)) [compound 210] | C (0.1 or more and less than 0.5)
211 (ICVYTFDAHAHSLHAAVTK(COCH2)I; thioether 2-19 (inferred)) [compound 211] | C (0.1 or more and less than 0.5)

Substance | Evaluation result of binding affinity to FGFR
212 (ICVYTFDAHAHSLHAAFTK(COCH2)I; thioether 2-19 (inferred)) [compound 212] | C (0.1 or more and less than 0.5)
213 (ICVYTFDAHAHSLHAATTK(COCH2)I; thioether 2-19 (inferred)) [compound 213] | C (0.1 or more and less than 0.5)
214 (ICVYTFDAHAHSLHAALAK(COCH2)I; thioether 2-19 (inferred)) [compound 214] | C (0.1 or more and less than 0.5)
215 (ICVYTFDAHAHSLHAALGK(COCH2)I; thioether 2-19 (inferred)) [compound 215] | C (0.1 or more and less than 0.5)
216 (ICVYTFDAHAHSLHAALPK(COCH2)I; thioether 2-19 (inferred)) [compound 216] | C (0.1 or more and less than 0.5)
217 (ICVYTFDAHAHSLHAALVK(COCH2)I; thioether 2-19 (inferred)) [compound 217] | C (0.1 or more and less than 0.5)
218 (ICVYTFDAHAHSLHAALFK(COCH2)I; thioether 2-19 (inferred)) [compound 218] | C (0.1 or more and less than 0.5)
219 (ICVYTFDAHAHSLHAALNK(COCH2)I; thioether 2-19 (inferred)) [compound 219] | A (0.7 or more)
220 (ICVYTFDAHAHSLHAALQK(COCH2)I; thioether 2-19 (inferred)) [compound 220] | A (0.7 or more)
221 (ICVYTFDAHAHSLHAALSK(COCH2)I; thioether 2-19 (inferred)) [compound 221] | C (0.1 or more and less than 0.5)
222 (ICVYTFDAHAHSLHAALEK(COCH2)I; thioether 2-19 (inferred)) [compound 222] | C (0.1 or more and less than 0.5)
223 (ICVYTFDAHAHSLHAALRK(COCH2)I; thioether 2-19 (inferred)) [compound 223] | A (0.7 or more)
224 (ICVYTFDAHAHSLHAALHK(COCH2)I; thioether 2-19 (inferred)) [compound 224] | A (0.7 or more)
225 (ICVYTFDAHAHSLHAALTK(COCH2)A; thioether 2-19 (inferred)) [compound 225] | B (0.5 or more and less than 0.7)
226 (ICVYTFDAHAHSLHAALTK(COCH2)L; thioether 2-19 (inferred)) [compound 226] | C (0.1 or more and less than 0.5)
227 (ICVYTFDAHAHSLHAALTK(COCH2)V; thioether 2-19 (inferred)) [compound 227] | A (0.7 or more)
228 (ICVYTFDAHAHSLHAALTK(COCH2)F; thioether 2-19 (inferred)) [compound 228] | C (0.1 or more and less than 0.5)
229 (ICVYTFDAHAHSLHAALTK(COCH2)Y; thioether 2-19 (inferred)) [compound 229] | C (0.1 or more and less than 0.5)
230 (ICVYTFDAHAHSLHAALTK(COCH2)W; thioether 2-19 (inferred)) [compound 230] | A (0.7 or more)

Substance | Evaluation result of binding affinity to FGFR
231 (ICVYTFDAHAHSLHAALTK(COCH2)N; thioether 2-19 (inferred)) [compound 231] | C (0.1 or more and less than 0.5)
232 (ICVYTFDAHAHSLHAALTK(COCH2)Q; thioether 2-19 (inferred)) [compound 232] | A (0.7 or more)
233 (ICVYTFDAHAHSLHAALTK(COCH2)S; thioether 2-19 (inferred)) [compound 233] | C (0.1 or more and less than 0.5)
234 (ICVYTFDAHAHSLHAALTK(COCH2)T; thioether 2-19 (inferred)) [compound 234] | C (0.1 or more and less than 0.5)
235 (ICVYTFDAHAHSLHAALTK(COCH2)R; thioether 2-19 (inferred)) [compound 235] | A (0.7 or more)
236 (ICVYTFDAHAHSLHAALTK(COCH2)H; thioether 2-19 (inferred)) [compound 236] | A (0.7 or more)
237 (VCIYTFNHLAQTYWQSLNK(COCH2)V; thioether 2-19 (inferred)) [compound 237] | A (0.7 or more)
238 (VCIWVFNRFAHTLKESLTK(COCH2)V; thioether 2-19 (inferred)) [compound 238] | C (0.1 or more and less than 0.5)
239 (ACVWTFDRHAQEISQALHKV; not fully specified (residue 19, bridges); also: cyclic peptide, ring not given here) [compound 239] | A (0.7 or more)
240 (ACVYLFNWRATSYGKSLIK(COCH2)W; thioether 2-19 (inferred)) [compound 240] | A (0.7 or more)
241 (HCKLYSYPLWYWPKWVFQTK(COCH2)E; thioether 2-20 (inferred)) [compound 241] | C (0.1 or more and less than 0.5)
242 (ACGVHQWEIGEWFGYRYYYK(COCH2)P; thioether 2-20 (inferred)) [compound 242] | B (0.5 or more and less than 0.7)
243 (QCYLPSWFYQKARLLFQYIK(COCH2)S; thioether 2-20 (inferred)) [compound 243] | C (0.1 or more and less than 0.5)
244 (DCTQGKILTYSQALFSFGVK(COCH2)I; thioether 2-20 (inferred)) [compound 244] | A (0.7 or more)
245 (NCVYYAKPVFAHANRVWTYIK(COCH2)I; thioether 2-21 (inferred)) [compound 245] | A (0.7 or more)
246 (PCIYTFDQSAIKYKIGFVLRK(COCH2)V; thioether 2-21 (inferred)) [compound 246] | C (0.1 or more and less than 0.5)
248 (QCWLQGPYWSDIKIYIYQHDK(COCH2)Y; thioether 2-21 (inferred)) [compound 248] | C (0.1 or more and less than 0.5)
249 (VCVRPIFIFSFRAPFNAVDWK(COCH2)I; thioether 2-21 (inferred)) [compound 249] | C (0.1 or more and less than 0.5)
